Paper PMC12820186

B1: proCsCYP707A4 p4 probe (dsDNA)
DNA 1: GCGAACGTCGTGTGAAGTACTTCATGGAGACGAATA
DNA 2: TATTCGTCTCCATGAAGTACTTCACACGACGTTCGC
B2: proCsCYP707A4 p2 probe (dsDNA)
DNA 1: CGTCGTGTGAAGTACTTCATGGAGACGAATAAAAG
DNA 2: CTTTTATTCGTCTCCATGAAGTACTTCACACGACG
B3: proCsCYP707A4 p3 probe (dsDNA)
DNA 1: TTGCCAACTAATTTCATGTTCAATCAATGAAAGTGA
DNA 2: TCACTTTCATTGATTGAACATGAAATTAGTTGGCAA

The binders below were run against T1, CsEIN3 DNA-binding domain (CsEIN3-BD) (cucumber, UniProt A0A0A0LXB4 1-412) (assay: EMSA).
T1 sequence: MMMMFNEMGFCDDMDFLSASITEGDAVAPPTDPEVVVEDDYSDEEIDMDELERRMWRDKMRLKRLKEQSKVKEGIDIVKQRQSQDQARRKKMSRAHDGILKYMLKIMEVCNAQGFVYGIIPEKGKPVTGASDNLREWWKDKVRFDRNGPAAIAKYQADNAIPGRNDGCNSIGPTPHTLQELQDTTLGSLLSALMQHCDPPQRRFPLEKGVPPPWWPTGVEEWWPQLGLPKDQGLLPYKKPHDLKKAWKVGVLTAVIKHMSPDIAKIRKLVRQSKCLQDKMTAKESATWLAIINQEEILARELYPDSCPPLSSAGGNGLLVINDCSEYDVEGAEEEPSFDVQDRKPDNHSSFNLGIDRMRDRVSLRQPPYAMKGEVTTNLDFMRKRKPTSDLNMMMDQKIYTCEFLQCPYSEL

Binding result, no binding:
B1
B2
B3
